According to patent US20250197514A1 (INTERVET, published 2025):

T1: canine FcRn heterodimer (FCGRT large subunit p51 + beta-2-microglobulin), biotin-labeled (Canis lupus familiaris; Canis familiaris, biotin-labeled (site not stated; the chain carries an AviTag))
T1 construct: also called FcRn/B2M; FcRn/β2M; not shown: AviTag, named only
T1 chain (part 1 of 2): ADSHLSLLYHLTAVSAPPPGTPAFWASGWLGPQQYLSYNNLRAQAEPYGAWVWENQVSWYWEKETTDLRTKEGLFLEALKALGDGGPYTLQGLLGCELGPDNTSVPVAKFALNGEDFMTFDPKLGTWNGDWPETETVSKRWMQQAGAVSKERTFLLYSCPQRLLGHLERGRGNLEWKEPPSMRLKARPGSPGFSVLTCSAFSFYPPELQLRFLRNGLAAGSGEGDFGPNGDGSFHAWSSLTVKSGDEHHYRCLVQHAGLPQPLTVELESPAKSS
T1 chain (part 2 of 2): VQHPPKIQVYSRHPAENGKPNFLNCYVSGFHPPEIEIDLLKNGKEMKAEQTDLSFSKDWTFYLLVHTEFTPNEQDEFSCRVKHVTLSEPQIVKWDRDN


Legend:
[1] = target: T1, canine FcRn heterodimer (FCGRT large …); assay: BLI (Octet HTX), biotinylated FcRn/B2M on streptavidin biosensors, analyte 500-7.8 nM, pH 6.0, 1:1 fit
Method: (§1) The binding of antibodies and IgG Fc fusion proteins to FcRn proteins was determined by Octet™ HTX using Streptavidin (SA) biosensors. First, biotin-labeled […] was loaded onto pre-hydrated SA biosensors for 60 s at a concentration of 10 μg/mL. Second, the biosensors were placed into pH 6.0 TBS/Casein buffer for the blocking phase for 180 s. Third, for the association phase, FcRn/B2M loaded biosensors were placed into 2-fold serial dilutions from 500 nM down to 7.8 nM of antibody or IgG Fc fusion protein in pH 6.0 or 7.4 TBS/Casein buffer for 15 s. Finally, the biosensors were placed into either pH 6.0 or pH 7.4 TBS/Casein buffer for the dissociation phase for 60 s. Analysis was performed using Octet Data Analysis 12.0 software and curves were fitted using a 1:1 binding model.

[2] = target: T1, canine FcRn heterodimer (FCGRT large …); assay: BLI (Octet HTX), biotinylated FcRn/B2M on streptavidin biosensors, analyte 500-7.8 nM, pH 7.4, 1:1 fit
Method: as §1

Binder	Kd [1]	Kd [2]
cIL-13Ra2-Fc (unsubstituted canine IL-13Rα2 ECD - cIgG-B hinge - cIgG-B Fc fusion protein) (Fc fusion, also called cIL-13Rα2-cIgGB-Fc; substitution: None) SMLSNAEIKVNPPQDFEIVDPGYLGYLSLQWQPPLFPDNFKECTIEYELKYRNIDSENWKTIITKNLHYKDGFDLNKGIEAKINTLLPAQCTNGSEVRSSWAETTYWTSPQGNRETKIQDMDCVYYNWQYLVCSWKPGMGVHFDTNYQLFYWYEGLDHSAECTDYIKVNGKNMGCRFPYLESSDYKDFYICVNGSSESQPIRPSYFIFQLQNIVKPMPPDYLSLTVKNSEEINLKWNMPKGPIPAKCFIYEIEFTEDGTTWVTTTVENEIQITRTSNESQKLCFLVRSKVNIYCSDDGIWSEWSDEQCWKGDIWKETPKRENGRVPRPPDCPKCPAPEMLGGPSVFIFPPKPKDTLLIARTPEVTCVVVDLDPEDPEVQISWFVDGKQMQTAKTQPREEQFNGTYRVVSVLPIGHQDWLKGKQFTCKVNNKALPSPIERTISKARGQAHQPSVYVLPPSREELSKNTVSLTCLIKDFFPPDIDVEWQSNGQQEPESKYRTTPPQLDEDGSYFLYSKLSVDKSRWQRGDTFICAVMHEALHNHYTQESLSHSPGK	16.9 nM	7020 nM
cIL-13Rα2-cIgGB-Fc-K (Fc fusion, also called cIL-13Ra2-cIgGB-Fc-K; H433K) SMLSNAEIKVNPPQDFEIVDPGYLGYLSLQWQPPLFPDNFKECTIEYELKYRNIDSENWKTIITKNLHYKDGFDLNKGIEAKINTLLPAQCTNGSEVRSSWAETTYWTSPQGNRETKIQDMDCVYYNWQYLVCSWKPGMGVHFDTNYQLFYWYEGLDHSAECTDYIKVNGKNMGCRFPYLESSDYKDFYICVNGSSESQPIRPSYFIFQLQNIVKPMPPDYLSLTVKNSEEINLKWNMPKGPIPAKCFIYEIEFTEDGTTWVTTTVENEIQITRTSNESQKLCFLVRSKVNIYCSDDGIWSEWSDEQCWKGDIWKETPKRENGRVPRPPDCPKCPAPEMLGGPSVFIFPPKPKDTLLIARTPEVTCVVVDLDPEDPEVQISWFVDGKQMQTAKTQPREEQFNGTYRVVSVLPIGHQDWLKGKQFTCKVNNKALPSPIERTISKARGQAHQPSVYVLPPSREELSKNTVSLTCLIKDFFPPDIDVEWQSNGQQEPESKYRTTPPQLDEDGSYFLYSKLSVDKSRWQRGDTFICAVMHEALKNHYTQESLSHSPGK	7.55 nM	626 nM
cIL-13Rα2-cIgGB-Fc-KYT (Fc fusion, also called cIL-13Ra2-cIgGB-Fc-KYT; H433K/N434Y/Y436T) SMLSNAEIKVNPPQDFEIVDPGYLGYLSLQWQPPLFPDNFKECTIEYELKYRNIDSENWKTIITKNLHYKDGFDLNKGIEAKINTLLPAQCTNGSEVRSSWAETTYWTSPQGNRETKIQDMDCVYYNWQYLVCSWKPGMGVHFDTNYQLFYWYEGLDHSAECTDYIKVNGKNMGCRFPYLESSDYKDFYICVNGSSESQPIRPSYFIFQLQNIVKPMPPDYLSLTVKNSEEINLKWNMPKGPIPAKCFIYEIEFTEDGTTWVTTTVENEIQITRTSNESQKLCFLVRSKVNIYCSDDGIWSEWSDEQCWKGDIWKETPKRENGRVPRPPDCPKCPAPEMLGGPSVFIFPPKPKDTLLIARTPEVTCVVVDLDPEDPEVQISWFVDGKQMQTAKTQPREEQFNGTYRVVSVLPIGHQDWLKGKQFTCKVNNKALPSPIERTISKARGQAHQPSVYVLPPSREELSKNTVSLTCLIKDFFPPDIDVEWQSNGQQEPESKYRTTPPQLDEDGSYFLYSKLSVDKSRWQRGDTFICAVMHEALKYHTTQESLSHSPGK	2.58 nM	253 nM
cIL-13Rα2-cIgGB-Fc-L (Fc fusion, also called cIL-13Ra2-cIgGB-Fc-L; H433L) SMLSNAEIKVNPPQDFEIVDPGYLGYLSLQWQPPLFPDNFKECTIEYELKYRNIDSENWKTIITKNLHYKDGFDLNKGIEAKINTLLPAQCTNGSEVRSSWAETTYWTSPQGNRETKIQDMDCVYYNWQYLVCSWKPGMGVHFDTNYQLFYWYEGLDHSAECTDYIKVNGKNMGCRFPYLESSDYKDFYICVNGSSESQPIRPSYFIFQLQNIVKPMPPDYLSLTVKNSEEINLKWNMPKGPIPAKCFIYEIEFTEDGTTWVTTTVENEIQITRTSNESQKLCFLVRSKVNIYCSDDGIWSEWSDEQCWKGDIWKETPKRENGRVPRPPDCPKCPAPEMLGGPSVFIFPPKPKDTLLIARTPEVTCVVVDLDPEDPEVQISWFVDGKQMQTAKTQPREEQFNGTYRVVSVLPIGHQDWLKGKQFTCKVNNKALPSPIERTISKARGQAHQPSVYVLPPSREELSKNTVSLTCLIKDFFPPDIDVEWQSNGQQEPESKYRTTPPQLDEDGSYFLYSKLSVDKSRWQRGDTFICAVMHEALLNHYTQESLSHSPGK	12.3 nM	7210 nM
cIL-13Ra2-Fc-YTE (Fc fusion, also called L252Y/A254T/T256E) SMLSNAEIKVNPPQDFEIVDPGYLGYLSLQWQPPLFPDNFKECTIEYELKYRNIDSENWKTIITKNLHYKDGFDLNKGIEAKINTLLPAQCTNGSEVRSSWAETTYWTSPQGNRETKIQDMDCVYYNWQYLVCSWKPGMGVHFDTNYQLFYWYEGLDHSAECTDYIKVNGKNMGCRFPYLESSDYKDFYICVNGSSESQPIRPSYFIFQLQNIVKPMPPDYLSLTVKNSEEINLKWNMPKGPIPAKCFIYEIEFTEDGTTWVTTTVENEIQITRTSNESQKLCFLVRSKVNIYCSDDGIWSEWSDEQCWKGDIWKETPKRENGRVPRPPDCPKCPAPEMLGGPSVFIFPPKPKDTLYITREPEVTCVVVDLDPEDPEVQISWFVDGKQMQTAKTQPREEQFNGTYRVVSVLPIGHQDWLKGKQFTCKVNNKALPSPIERTISKARGQAHQPSVYVLPPSREELSKNTVSLTCLIKDFFPPDIDVEWQSNGQQEPESKYRTTPPQLDEDGSYFLYSKLSVDKSRWQRGDTFICAVMHEALHNHYTQESLSHSPGK	6.59 nM	363 nM

The next binders have a lower Kd [1] than those just listed; values first:

Kd [1]	Kd [2]	Binder
0.97 nM	414 nM	cIL-13Rα2-cIgGB-Fc-KF (Fc fusion, also called cIL-13Ra2-cIgGB-Fc-KF; H433K/N434F) SMLSNAEIKVNPPQDFEIVDPGYLGYLSLQWQPPLFPDNFKECTIEYELKYRNIDSENWKTIITKNLHYKDGFDLNKGIEAKINTLLPAQCTNGSEVRSSWAETTYWTSPQGNRETKIQDMDCVYYNWQYLVCSWKPGMGVHFDTNYQLFYWYEGLDHSAECTDYIKVNGKNMGCRFPYLESSDYKDFYICVNGSSESQPIRPSYFIFQLQNIVKPMPPDYLSLTVKNSEEINLKWNMPKGPIPAKCFIYEIEFTEDGTTWVTTTVENEIQITRTSNESQKLCFLVRSKVNIYCSDDGIWSEWSDEQCWKGDIWKETPKRENGRVPRPPDCPKCPAPEMLGGPSVFIFPPKPKDTLLIARTPEVTCVVVDLDPEDPEVQISWFVDGKQMQTAKTQPREEQFNGTYRVVSVLPIGHQDWLKGKQFTCKVNNKALPSPIERTISKARGQAHQPSVYVLPPSREELSKNTVSLTCLIKDFFPPDIDVEWQSNGQQEPESKYRTTPPQLDEDGSYFLYSKLSVDKSRWQRGDTFICAVMHEALKFHYTQESLSHSPGK
0.34 nM	19.8 nM	cIL-13Rα2-cIgGB-Fc-DPY (Fc fusion, also called cIL-13Ra2-cIgGB-Fc-DPY; T256D/I308P/N434Y) SMLSNAEIKVNPPQDFEIVDPGYLGYLSLQWQPPLFPDNFKECTIEYELKYRNIDSENWKTIITKNLHYKDGFDLNKGIEAKINTLLPAQCTNGSEVRSSWAETTYWTSPQGNRETKIQDMDCVYYNWQYLVCSWKPGMGVHFDTNYQLFYWYEGLDHSAECTDYIKVNGKNMGCRFPYLESSDYKDFYICVNGSSESQPIRPSYFIFQLQNIVKPMPPDYLSLTVKNSEEINLKWNMPKGPIPAKCFIYEIEFTEDGTTWVTTTVENEIQITRTSNESQKLCFLVRSKVNIYCSDDGIWSEWSDEQCWKGDIWKETPKRENGRVPRPPDCPKCPAPEMLGGPSVFIFPPKPKDTLLIARDPEVTCVVVDLDPEDPEVQISWFVDGKQMQTAKTQPREEQFNGTYRVVSVLPPGHQDWLKGKQFTCKVNNKALPSPIERTISKARGQAHQPSVYVLPPSREELSKNTVSLTCLIKDFFPPDIDVEWQSNGQQEPESKYRTTPPQLDEDGSYFLYSKLSVDKSRWQRGDTFICAVMHEALHYHYTQESLSHSPGK
0.87 nM	91.8 nM	cIL-13Rα2-cIgGB-Fc-DY (Fc fusion, also called cIL-13Ra2-cIgGB-Fc-DY; T256D/N434Y) SMLSNAEIKVNPPQDFEIVDPGYLGYLSLQWQPPLFPDNFKECTIEYELKYRNIDSENWKTIITKNLHYKDGFDLNKGIEAKINTLLPAQCTNGSEVRSSWAETTYWTSPQGNRETKIQDMDCVYYNWQYLVCSWKPGMGVHFDTNYQLFYWYEGLDHSAECTDYIKVNGKNMGCRFPYLESSDYKDFYICVNGSSESQPIRPSYFIFQLQNIVKPMPPDYLSLTVKNSEEINLKWNMPKGPIPAKCFIYEIEFTEDGTTWVTTTVENEIQITRTSNESQKLCFLVRSKVNIYCSDDGIWSEWSDEQCWKGDIWKETPKRENGRVPRPPDCPKCPAPEMLGGPSVFIFPPKPKDTLLIARDPEVTCVVVDLDPEDPEVQISWFVDGKQMQTAKTQPREEQFNGTYRVVSVLPIGHQDWLKGKQFTCKVNNKALPSPIERTISKARGQAHQPSVYVLPPSREELSKNTVSLTCLIKDFFPPDIDVEWQSNGQQEPESKYRTTPPQLDEDGSYFLYSKLSVDKSRWQRGDTFICAVMHEALHYHYTQESLSHSPGK
0.93 nM	229 nM	cIL-13Rα2-cIgGB-Fc-F (Fc fusion, also called cIL-13Ra2-cIgGB-Fc-F; N434F) SMLSNAEIKVNPPQDFEIVDPGYLGYLSLQWQPPLFPDNFKECTIEYELKYRNIDSENWKTIITKNLHYKDGFDLNKGIEAKINTLLPAQCTNGSEVRSSWAETTYWTSPQGNRETKIQDMDCVYYNWQYLVCSWKPGMGVHFDTNYQLFYWYEGLDHSAECTDYIKVNGKNMGCRFPYLESSDYKDFYICVNGSSESQPIRPSYFIFQLQNIVKPMPPDYLSLTVKNSEEINLKWNMPKGPIPAKCFIYEIEFTEDGTTWVTTTVENEIQITRTSNESQKLCFLVRSKVNIYCSDDGIWSEWSDEQCWKGDIWKETPKRENGRVPRPPDCPKCPAPEMLGGPSVFIFPPKPKDTLLIARTPEVTCVVVDLDPEDPEVQISWFVDGKQMQTAKTQPREEQFNGTYRVVSVLPIGHQDWLKGKQFTCKVNNKALPSPIERTISKARGQAHQPSVYVLPPSREELSKNTVSLTCLIKDFFPPDIDVEWQSNGQQEPESKYRTTPPQLDEDGSYFLYSKLSVDKSRWQRGDTFICAVMHEALHFHYTQESLSHSPGK
